# Assay results reported in the DeepSol protein solubility set.
# Assay: soluble on expression in E. coli; label from the status in PepcDB or PDB records
row,Sequence,soluble on expression in E. coli
1,RDILEVLQDIHMETGETVAIATKNDIYLQYIQIIESVHALRFHVDENAIRPLTMSSNGWMLMSTMNDKAIDNTVRRANTITQKDGIRFEVDDMMARIRQVREQGYASAEHIPFVGGGTICVLLPMTIQGQPVTMGLGGALDRIKQNYDRYLELLLNGVQQLKKSDSFHQPIELAH,not soluble
2,MNILLTSATGYLGRAIAAAIQSKGHRVTALARSAATAQRLEAAGIQPCRGDLTDAVALQQAAAQADAVIHTAATNDAAMGLVDRQAVKTLLAAIAGTQKPFLYTSGLWVMGNTGATVADETFPLNPPALVAWRPAVEALVLSAADQGVRSIVIRPALVYGRGGGLLPMLMQAGQSQGAVPVIGAGDNAWSFIHIDDLAALYVAAIEQAPARTLLIGASGESVSMQQVALTIAKTLGLGDRLQHLTLEEARAIWGDLADALTLDQRVSGDRARQLLHWQPVAPGVFQELTQGSYATKAIAALEHHHHHH,not soluble
3,MGSDKIHHHHHHMNKKLLNKVMKKLASSNVVISPTVKSSSTSLSMQKKPETEQVQQKLEQYLLSRYHFRFNLLTEQTECCKKDADTPIYKVISQRTLNSLCLEARARHINCWDKDVSRFVNSEQMPDYHPLLSYMNTLPEWDGKDRVTPLAQRISTKDFWVNSFHRWMLGVTAQWSGRMDRCANAVAPMLVSSEQGRCKSTFCELLMPDSLKDYYTDSFELTGQAGCEQKLAFFGLINLDEYDRLSPQKLPLLKNLMQMKKLDFRKSHRSSYSHLPRMASFIGTSNRKALLTDPSGSRRYFFAEVKEKIDCSPLEHKQLFAQLKAELDEGKRYWFSAAEESELKLRNQAYYALPTEAEMILHCFRLPEKGEDFKLYSAVCLFNILLKRYPAAMRGITINKMGRIMNSLGAERMHTTTGNMYKLVALAG,not soluble
4,MSLGDKKIRIRRTNEQLDKEVISEFEKLVGEFGFGNVNLSALMKAADLEANVFYRRYGSMDNLYDRLAKQYDFWINNTIDISTLNTLGPKKFFAETFKTLFRNLSENSVMQKLLLYEMTTINSTTKRSAETRDVMNLNLITFYENLFAPAKINIKSIASILIGGIYYLILHKECAKICTIDYKTKEGENAFSEGIDFLTDIIFDRLEMYDRDKKAIRQMISDGISESKICKYMGINKNDLKTLLSEGHHHHHH,soluble
5,MGSDKIHHHHHHMLTGQRRRESRSRQGSGFPTISYPRIRDGANRPRTRMSPLPEAVPFFSQWETPDMTLAVLADGAEVALRRDLLWQGSGAESLDEYAVWAANICGMACLKMILATRGEIVPTIELARRCTRYGGYVVNEGSIKGLIYAPFVSFVQAEFSLEAQVMTNVATSDIPAILRQSRFFIASVSSSIRWPEGEPPSKGGHLVLVTAASDDGFRFHNPSGHTSVTQANAVLAPADFDRFFANRGIAITI,not soluble
6,MSSPRSNKPKIVNGPGGYILQDVPHLIDYLPDLPTYPNPLQDNPAYSVVKQYFVHADDSVPEKVVVHKDGPRGVHFRRAGPRQKVYFESDEVHACIVTCGGLCPGLNTVIREVVSSLSYMYGVKRILGIDGGYRGFYAKNTIPLNSKVVNDIHKRGGTIIGTSRGGHDTNKIVDSIQDRGINQVYIIGGDGTQRGASVIFEEIRRRRLKVAVVGIPKTIDNDIPVIDKSFGFDTAVEEAQRAINAAHVEAESNENGIGFVKLMGRYSGYIAMYATLASRDVDCCLIPESPFYLEGEGGLFEFIERRLKDHGHMVIVLAEGAGQDLMCKSMESTPMDASGNKLLKDVGLWLSQSIKDHFKKNKMVMNLKYIDPTYMIRAVPSNASDNVYCTLLAQSAVHGAMAGYTGYTSGLVNGRQTYIPFYRITETQNNVVITDRMWARLLSSTNQPSFLGPKDTSEEKKELPETPLLDDGAVDIPPVTKEVTK,soluble
7,MLPTRSLLPFFLAPALLASAASQAAMEALDNDSLSQVTGQAGISLRLDLRAGAARVAWVDDGGSLSLRNLVIDNGCVKAGDCPDGRGGNIPLGAAQLGLSLPIFGVEQPTLALDVTTGSGGGQQLAISLPDLATINDQLIASGLPAQRIRLRVASDLYIGDNSIGRIELRDITDLRGTIKVWGH,not soluble
8,MPSSPAERYAQALASGQFMPDEAQAQAVQELERVWQELLSRYKASKKAFRRFRRQTSPKGVYMWGGVGRGKTWLMDQFYDSIPFRRKTRMHFHHFMQHVHRELNKLSGQRNPLDLVADQIYKDAVIICFDEFFVSNVTDAMILSDLFQKLFNRGVTLVATSNIAPDGLYKNGIHRDRFLPTIELVQKNCTILNVDAGVDYRLRVLKQAQLFKHPLTDDAKIWMSQRFSAITRSQIVSQQPITINNRVVETLGHTEDVLWCEFSELCLKPRSPADFIEIANIYNTVLVSNVPHLTDYLSEGTRRFIYLVDEFYDRGVKLLLTSQDSIIEIYEGEKLAFEIERTRSRLLEMQSDEYLHSLEHHHHHH,soluble
9,MEADRKADNGNAGFSLVCHPEERITYRVGNKVICCLDGSRIGIQFETSTAGETYEVYHCVLESKSFLEKMIVLEHTIPFFLPLSDLENDLLFSNAKKFIDNVGDLLQAYVDRKEQVRLIKELFGHQISEIYHSLPYHMIEFSMDDCDCKFVVSLRYGDLLCELPTKVRILVWPMHHLSKKQCTSPGSPAIPVRLPFAEDAFRIQSLPEAYAEIMPNMPNEIRQLFQTSPS,soluble
10,MVKLENKPTIISTGTIVGPKEGEGPLKDYFDMIMTDDLYGEKTWELAESKMVETASQQAIQKAGKKLSDVNYMLGGDLINQIVPASFAARELAIPFLGIYGACSTMAEGLCIGSMLIDGGFADLVLSGTSSHYCTAERQFRFPLELGNQKPMTAQWTVTGAGSVLLAPNGDGPKVKYVTVGKVIDEGIDDGNNMGPAMAPAAIDTIYSYFEDTNDDPNSFDIIATGDLGTLGKQIAEDFLKEKGVDISKVYTDCGIEMFNLKEQDVHCGGSGCGCSATVFAGYIYDKLRKKEFNKVMLVSTGALLSPTSTLQKQTIPCVAHAVVIVNELEHHHHHH,not soluble
11,MHHHHHHSSGVDLGTENLYFQSMNGPEDLPKSYDYDLIIIGGGSGGLAAAKEAAQYGKKVMVLDFVTPTPLGTRWGLGGTCVNVGCIPKKLMHQAALLGQALQDSRNYGWKVEETVKHDWDRMIEAVQNHIGSLNWGYRVALREKKVVYENAYGQFIGPHRIKATNNKGKEKIYSAERFLIATGERPRYLGIPGDKEYCISSDDLFSLPYCPGKTLVVGASYVALECAGFLAGIGLDVTVMVRSILLRGFDQDMANKIGEHMEEHGIKFIRQFVPIKVEQIEAGTPGRLRVVAQSTNSEEIIEGEYNTVMLAIGRDACTRKIGLETVGVKINEKTGKIPVTDEEQTNVPYIYAIGDILEDKVELTPVAIQAGRLLAQRLYAGSTVKCDYENVPTTVFTPLEYGACGLSEEKAVEKFGEENIEVYHSYFWPLEWTIPSRDNNKCYAKIICNTKDNERVVGFHVLGPNAGEVTQGFAAALKCGLTKKQLDSTIGIHPVCAEVFTTLSVTKRSGASILQAGCGG,soluble
12,MFSILLPTWNNLALLKLCVQSIRAHSAHDHQIIVHVNDGSDGTLAWVREQGLDHTHSPGNVGICLAVNESAMLARHDYIVYLNDDMVCCPGWDTALLRRLDTLDTDLFMLSGTMIEPVDTGNPCVVVGNYGRDADTFDAARLLADVPRLARGDWLGATWPPTLVHRRWWFKLGGYSSELTPGMSSDNDFSMKLWHAGCRIFLGAGDSLVYHFQCKSTGKVKKNDGRRQFLNKWGLSQSTFDKYFLRRGTPAGADWRLPEPELTSALRWDLRRNDLTRRLRPGVPVLLEHHHHHH,soluble
13,NDNSPRFEKSVYEADLAENSAPGTPILQLRAADLDVGVNGQIEYVFGAATESVRRLLRLDETSGWLSVLHRIDREEVNQLRFTVMARDRGQPPKTDKATVVLNIKDENDNVP,soluble
14,MFSRDRVAYTDLTVNSACDDLFPGVEDVDAQATLQLRAALDAFEEGVFEYHNRASQAGEADAGKHSARGGGQRRTRREKIYASRIPEDRQFFRPVDQQSAEWAAFKPHLWLRGRRIHSADAAAHAGQHHHLHHHTPAGAPQAQQPALAASPVHAGAGLPAGTAGAGADAGAGAGTGAGLELRGTRAVLAPPPPEAEDAADPDRECVLVDHGDFAESLAVQWDAWEAAATRGGPQALRRRRGRPRDEKAVAVGLPPVEPRSAILYDVAEELLPDVWQRLAPLLAPLLARVAEERKKRPASSAAAAFRGAGAGGGGGGGLGGGSFGGGDFEILTFS,not soluble
15,MGSDKIHHHHHHAGLPDNLTPVGAERAASPDGRIPAWQGGLSTAQQRLGDNGTPLDPFADEQPLYRITAANYRQYRGQLTDGQVALLKRFPASLSLPVYPTHRSVAVPDAVAASAARNAEQAQLDDQGNGVRGFTGVIAFAQPTNGLEVIWNHLTRHRNVSYSLSSDSVTPLKNGRFVLMSARQEVARPEGLANLGAGNVLYYFTYRMTAPSRLAGDAMVVHETLDQVAEPRLSWVYSASQRRVRRAPNIAYDTTGPGTAGLRTADSRDMFNGAPDRYDWKLLGKQALHVPYNCYRLASPELRYVDLIKPGHIDPAPTRYELHRVWVVEATLKPGAQHIYAKRRFYLDEDTWAILETDSYDARGELWRTSQAHGFFHPSGQVAVNAMEITYDLKSGRYHASGLINEQRRPFAFNVRTSLSYFSPGALRSFGVR,not soluble
16,SNDFNWTSVFNLSHNRNKIVSLNGLLDQTIEGTWFIHKVGLPYHTFYVKEFAGVDPLTGSAQYYLNTKNEDGSYNRELTTDAAKAESIPYKTATPKVSGGFTNILNYKWIDLTFTLTYSLGGYSFDKLGTYIENGSSSIYSSRYNLPAYMMNRWQKPGDQTDIPRFVYGEPATSTNSSRYIHSTDHLRLKNFTLGFTLPNQWTQKLMIDKVRVYFSGNNLLTWAKWKQYDPETPVNGEVFCEAPAMRTFSFGAQLSF,not soluble
17,GVALGATRVIYPAGQKQVQLAVTNNDENSTYLIQSWVENADGVKDGRFIVTPPLFAMKGKKENTLRILDATNNQLPQDRESLFWMNVKAIPSMDKSKLTENTLQLAIISRIKLYYRPAKLALPPDQAAEKLRFRRSANSLTLINPTPYYLTVTELNAGTRVLENALVPPMGESAVKLPSDAGSNITYRTINDYGALTPKMTGVME,soluble
18,MQQHEIRRFVERYFAANGCTFVEASDDYLTVQLTAEMDKELMNRPFYWHYIERTGGVPQPMRLTLITRASERTDKLKGERLHFGAPRLHQLFRSAQKRGSFIRLYEEPNAPLDGNAALHPWLGMNVTISYECDRKKDEIVSLGLHLISGTIVESFHERMRERRLTPKIPDYCFTISPLIKPRSGIGRLEQYIRSRIAADNHAWADEARRRWADDLALLDEFYKDCEEKPECYYIEKEALEKQYKPRITVSVINGGLFYLLPRSS,not soluble
19,MGSDKIHHHHHHMAATSNQIKSKVWDNKQEYHLTIESLRMLLENRIPLIRLKEFATPQECEILVAQAELFNFDCYQNVNPKIERIGITVFEYNRISKAAYFQAVERTTKLRDCIMAASFNPLERLMVKIQECTGATVRIASEPLYGSYYAGLIRKIEQGTQLHIDYAPLEQSKWEIGTVIYQLSWNLYLKFSPNNHGQTRIYDRQWQPGDEQYKLDSYGYGDTVIADADTIAFQPYVGDVFIFNTRNYHTVEPMDGQRVTFTSAIGLLPNGEIILWS,not soluble
20,MAQVMYATPDNMLSRFGEQDLTLLTEREDSVPGEINLALLEQALSDASAEIDGYIAGRYVLPLTTVPAVLERNCCDIARYFLYGDKAPEQVEKRYAAVVKFLTAVSKGDISLGLATTGETADQSELVISIESAGSVFGRKSAKGFI,soluble
21,MSLYIETVRGKIKPEEFGVCACHEHLHIDLSRIKNDSDTALVEVALVLSDLKSFVSHGGQAIVDVTNDGMGRDVEKLVVMSEALDLHIVASTGCYKDPFIPEEKQMWTREQFAEWMIDEIMYGISGTTVKPGVIGEIGSSLNEFKPVELELFYGAIEAAKTTKLPLSTHTTLGTLAMEQIRLFDSESLPLDQVIIGHQDLNDDDEQVLKVLSTGAYVALDTIGKENYRSDEARLNSLLLFLEKGYEDQLLLSSDVTRTSHLLVHGGQGYDVVLRSFIPKLRAKGADEATIQKLLVKTHKKHLASREGHHHHHH,not soluble
